Experimental data: patent WO2017046774A2 (dated 2017)

Experiments:
[1] = molecular target: T1, human MCAM C272A mutant (shotgun mutagenesis library clone, on cells) (human, UniProt P43121 24-646); assay: shotgun mutagenesis library, immunodetection on BHK cells, normalized to wild type MCAM
T1 construct: Expressed in BHK cells, immunodetection
T1 chain: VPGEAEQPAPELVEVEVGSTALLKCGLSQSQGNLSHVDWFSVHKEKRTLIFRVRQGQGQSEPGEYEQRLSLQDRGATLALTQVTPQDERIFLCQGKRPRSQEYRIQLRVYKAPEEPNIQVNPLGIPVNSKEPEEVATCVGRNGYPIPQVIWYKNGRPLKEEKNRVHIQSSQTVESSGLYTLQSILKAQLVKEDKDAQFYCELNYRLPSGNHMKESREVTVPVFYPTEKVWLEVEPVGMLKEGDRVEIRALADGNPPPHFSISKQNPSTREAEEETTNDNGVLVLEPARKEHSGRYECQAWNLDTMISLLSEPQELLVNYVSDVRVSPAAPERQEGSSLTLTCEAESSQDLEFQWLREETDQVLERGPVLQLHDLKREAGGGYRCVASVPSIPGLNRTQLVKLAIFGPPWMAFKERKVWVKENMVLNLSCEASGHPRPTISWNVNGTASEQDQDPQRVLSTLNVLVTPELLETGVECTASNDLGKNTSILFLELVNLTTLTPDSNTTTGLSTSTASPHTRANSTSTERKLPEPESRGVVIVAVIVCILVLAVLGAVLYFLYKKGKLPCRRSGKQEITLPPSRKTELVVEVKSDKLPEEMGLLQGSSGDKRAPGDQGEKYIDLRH

recombinant laminin 511 = molecular target: T2, recombinant laminin 511 (UniProt O15230 36-3695; P07942 22-1786; P11047 34-1609); assay: flow cytometry on CHO cells transfected with human MCAM, pan-laminin antibody
T2 construct: also called laminin 10 (α5β1γ1)

B1: mouse anti-human MCAM monoclonal antibody clone 1749.1.3 (antibody, V domains shown)
VH: DVKLVESGGDLVKPGGSLKLSCAASGFTFSSYIMSWVRQTPEKRLEWVATISSGGSSTYYPDSVKGRFTISRDNAKNTLYLQMSSLKSEDTAMYYCTRDDDYDVKVFAYWGQGTLVTVSA
VL: DIVMSQSPSSLAVSAGEKVTMNCKSSRSLLNSRIRKNYLAWYQQKPGQSPKLLIYWASTRESGVPDRFTGSGSGTDFTLTISSVQAEDLAVYYCKQSYNLLTFGAGTKLELK
notes: Mouse hybridoma monoclonal antibody; also called m1749
mean monoclonal antibody reactivity (% WT) [1]: < 30 % WT

B2: human MCAM (full length, expressed on the surface of transfected cells) (receptor)
chain: VPGEAEQPAPELVEVEVGSTALLKCGLSQSQGNLSHVDWFSVHKEKRTLIFRVRQGQGQSEPGEYEQRLSLQDRGATLALTQVTPQDERIFLCQGKRPRSQEYRIQLRVYKAPEEPNIQVNPLGIPVNSKEPEEVATCVGRNGYPIPQVIWYKNGRPLKEEKNRVHIQSSQTVESSGLYTLQSILKAQLVKEDKDAQFYCELNYRLPSGNHMKESREVTVPVFYPTEKVWLEVEPVGMLKEGDRVEIRCLADGNPPPHFSISKQNPSTREAEEETTNDNGVLVLEPARKEHSGRYECQAWNLDTMISLLSEPQELLVNYVSDVRVSPAAPERQEGSSLTLTCEAESSQDLEFQWLREETDQVLERGPVLQLHDLKREAGGGYRCVASVPSIPGLNRTQLVKLAIFGPPWMAFKERKVWVKENMVLNLSCEASGHPRPTISWNVNGTASEQDQDPQRVLSTLNVLVTPELLETGVECTASNDLGKNTSILFLELVNLTTLTPDSNTTTGLSTSTASPHTRANSTSTERKLPEPESRGVVIVAVIVCILVLAVLGAVLYFLYKKGKLPCRRSGKQEITLPPSRKTELVVEVKSDKLPEEMGLLQGSSGDKRAPGDQGEKYIDLRH
notes: also called CD146; MUC18
binding result (recombinant laminin 511): no binding (tested: 10 μg/ml)
